Measurements taken from paper PMC2793005, “Dissecting the Role of Critical Residues and Substrate Preference of a Fatty Acyl-CoA Synthetase (FadD13) of Mycobacterium tuberculosis” (PLoS ONE, 2009).

Target: the molecule itself
Test: SEC

B1: Fatty Acyl-CoA Synthetase FadD13 (Rv3089) of Mycobacterium tuberculosis, N-terminal 6x histidine tag (enzyme)
chain: MKNIGWMLRQRATVSPRLQAYVEPSTDVRMTYAQMNALANRCADVLTALGIAKGDRVALLMPNSVEFCCLFYGAAKLGAVAVPINTRLAAPEVSFILSDSGSKVVIYGAPSAPVIDAIRAQADPPGTVTDWIGADSLAERLRSAAADEPAVECGGDDNLFIMYTSGTTGHPKGVVHTHESVHSAASSWASTIDVRYRDRLLLPLPMFHVAALTTVIFSAMRGVTLISMPQFDATKVWSLIVEERVCIGGAVPAILNFMRQVPEFAELDAPDFRYFITGGAPMPEALIKIYAAKNIEVVQGYALTESCGGGTLLLSEDALRKAGSAGRATMFTDVAVRGDDGVIREHGEGEVVIKSDILLKEYWNRPEATRDAFDNGWFRTGDIGEIDDEGYLYIKDRLKDMIISGGENVYPAEIESVIIGVPGVSEVAVIGLPDEKWGEIAAAIVVADQNEVSEQQIVEYCGTRLARYKLPKKVIFAEAIPRNPTGKILKTVLREQYSATVPK
notes: also called native FadD13; NP; not shown: His6, N-terminal, kept
For B1, the “stoichiometry N” value was 2.
